Values quoted from earlier work, collected in article PMC5654615.
Read-outs that look alike come from different tables or passages of the source.

Key:
MD2 (Homo sapiens) = MD2 (Homo sapiens) (UniProt Q9Y6Y9); experiment: SPR
[1] = biological target: TLR4/MD2 complex (Homo sapiens) (UniProt O00206); experiment: SPR
TLR4 (Homo sapiens) = TLR4 (Homo sapiens) (UniProt O00206); experiment: SPR
[2] = biological target: TLR4/MD2 complex (Homo sapiens) (UniProt O00206)

Chain of UniProt Q9Y6Y9 (Q9Y6Y9 19-160): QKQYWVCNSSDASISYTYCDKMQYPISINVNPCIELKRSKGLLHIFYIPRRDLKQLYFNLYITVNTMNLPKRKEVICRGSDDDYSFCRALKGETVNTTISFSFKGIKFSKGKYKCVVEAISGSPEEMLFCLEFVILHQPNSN

Row | Substance | Kd (MD2 (Homo sapiens)) [nM] | Kd [1] [nM] | Kd (TLR4 (Homo sapiens)) [nM] | Kd [2] [nM]
1 | CIRP (from UniProt Q14011) | 302 | 239 | 617 | 
2 | HMGB1 (from UniProt P09429) |  |  |  | 1500
